From US20240101687A1

Experiments:
[1] = target: human IGF1R on cells (human) (UniProt P08069); test: FACS on BT474 cells (FL1-H), anti-human FITC; MFI of 2nd Ab only 1.93, untreated 1.8
[2] = target: human IGF1R on cells (human) (UniProt P08069); test: FACS on MCF-7 cells (FL1-H), anti-human FITC; MFI of 2nd Ab only 4.53, untreated 2.51
[3] = target: human IGF1R on cells (human) (UniProt P08069); test: FACS on JIMT-1 cells (FL1-H), anti-human FITC; MFI of 2nd Ab only 1.89, untreated 1.36

IMC-A12 (antibody), sequence (VH): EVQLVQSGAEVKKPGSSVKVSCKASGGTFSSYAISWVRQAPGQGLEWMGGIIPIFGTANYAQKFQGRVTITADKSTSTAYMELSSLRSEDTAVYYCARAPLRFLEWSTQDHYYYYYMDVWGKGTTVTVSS
IMC-A12 (antibody), sequence (VL): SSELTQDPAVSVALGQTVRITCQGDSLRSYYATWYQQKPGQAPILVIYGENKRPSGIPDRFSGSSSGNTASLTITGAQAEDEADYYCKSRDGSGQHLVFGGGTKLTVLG

In the case of IMC-A12 (antibody), the MFI [1] is reported as 18.3, the MFI [2] is reported as 40.1 and the MFI [3] is reported as 23.
